Assay results reported in patent US20210395344A1.

Columns and labels:
[1] = target: SARS-CoV-2 S protein trimer (SARS-CoV-2), P0DTC2; test: column DB/S-T (format not explained); conditions: remark: other sources report otherwise
[2] = target: COVID S1 RBD Fc fusion (Antigen 1) (SARS-CoV-2), P0DTC2; test: phage ELISA; conditions: remark: other sources report otherwise

B1: 1-5 (antibody, V domains shown)
VH: EVQLLESGGGLVQPGGSLRLSCAASGFTFSSQAMSWVRQAPGKGLEWVSAISGSGGGTYYADSVKGRFTISRDNSKNTLYLQMNSLRAEDTAVYYCAKDRRFGEFDPWGQGTLVTVSS
VL: QSALTQPASVSGSPGQSITISCTGTSSGVGSYNLVSWYQQHPGKAPKLMIYEASKRPSGVSNRFSGSKSGNTASLTISGLQAEDEADYYCCSYAGSYTFAVFGGGTKLTVL
[1]
  Kd: 1160 nM
[2]
  ELISA fold over background (fold over background): 1.6
